In article PMC10976588:

B1: basigin (Bsg): Bsg-N306Q (protein)
parent chain: MAAALLLALAFTLLSGQGACAAAGFLKAPLSQERWAGGSVVLHCEAVGSPIPEIQWWFEGNAPNDSCSQLWDGARLDRVHIHAAYRQHAASSLSVDGLTAEDTGTYECRASSDPDRNHLTRPPRVKWVRAQASVVVLEPGTIQTSVQEVNSKTQLTCSLNSSGVDIVGHRWMRGGKVLQEDTLPDLHTKYIVDADDRSGEYSCIFLPEPVGRSEINVEGPPRIKVGKKSEHSSEGELAKLVCKSDASYPPITDWFWFKTSDTGEEEAITNSTEANGKYVVVSTPEKSQLTISNLDVNVDPGTYVCNATNAQGTTRETISLRVRSRMAALWPFLGIVAEVLVLVTIIFIYEKRRKPDQTLDEDDPGAAPLKGSGTHMNDKDKNVRQRNAT
B2: basigin (Bsg): Fut2ΔISC (protein)
parent chain: B1 parent chain
B3: N-acyl sphingosine amidohydrolase 2 (Asah2): Asah2-N444Q (protein)
parent chain: MAKRTFSTLEAFLIFLLVIMTVITVALLTLLFVTSGTIENHKDSGNHWFSTTLGSTTTQPPPITQTPNFPSFRNFSGYYIGVGRADCTGQVSDINLMGYGKNGQNARGLLTRLFSRAFILADPDGSNRMAFVSVELCMISQRLRLEVLKRLESKYGSLYRRDNVILSAIHTHSGPAGFFQYTLYILASEGFSNRTFQYIVSGIMKSIDIAHTNLKPGKIFINKGNVANVQINRSPSSYLLNPQSERARYSSNTDKEMLVLKLVDLNGEDLGLISWFAIHPVSMNNSNHFVNSDNMGYAAYLFEQEKNKGYLPGQGPFVAGFASSNLGDVSPNILGPHCVNTGESCDNDKSTCPNGGPSMCMASGPGQDMFESTHIIGRIIYQKAKELYASASQEVTGPVLAAHQWVNMTDVSVQLNATHTVKTCKPALGYSFAAGTIDGVSGLNITQGTTEGDPFWDTLRDQLLGKPSEEIVECQKPKPILLHSGELTIPHPWQPDIVDVQIVTVGSLAIAAIPGELTTMSGRRFREAIKKEFALYGMKDMTVVIAGLSNVYTHYITTYEEYQAQRYEAASTIYGPHTLSAYIQLFRDLAKAIATDTVANMSSGPEPPFFKNLIASLIPNIADRAPIGKHFGDVLQPAKPEYRVGEVVEVIFVGANPKNSAENQTHQTFLTVEKYEDSVADWQIMYNDASWETRFYWHKGILGLSNATIYWHIPDTAYPGIYRIRYFGHNRKQELLKPAVILAFEGISSPFEVVTT
B4: N-acyl sphingosine amidohydrolase 2 (Asah2): Fut2ΔISC (protein)
parent chain: B3 parent chain
B5: Niemann–Pick type C intracellular cholesterol transporter 1 (Npc1): Npc1-N961Q (protein)
parent chain: MGAHHPALGLLLLLLCPAQVFSQSCVWYGECGIATGDKRYNCKYSGPPKPLPKDGYDLVQELCPGLFFDNVSLCCDIQQLQTLKSNLQLPLQFLSRCPSCFYNLMTLFCELTCSPHQSQFLNVTATEDYFDPKTQENKTNVKELEYFVGQSFANAMYNACRDVEAPSSNEKALGLLCGRDARACNATNWIEYMFNKDNGQAPFTIIPVFSDLSILGMEPMRNATKGCNESVDEVTGPCSCQDCSIVCGPKPQPPPPPMPWRIWGLDAMYVIMWVTYVAFLFVFFGALLAVWCHRRRYFVSEYTPIDSNIAFSVNSSDKGEASCCDPLGAAFDDCLRRMFTKWGAFCVRNPTCIIFFSLAFITVCSSGLVFVQVTTNPVELWSAPHSQARLEKEYFDKHFGPFFRTEQLIIQAPNTSVHIYEPYPAGADVPFGPPLNKEILHQVLDLQIAIESITASYNNETVTLQDICVAPLSPYNKNCTIMSVLNYFQNSHAVLDSQVGDDFYIYADYHTHFLYCVRAPASLNDTSLLHGPCLGTFGGPVFPWLVLGGYDDQNYNNATALVITFPVNNYYNDTERLQRAWAWEKEFISFVKNYKNPNLTISFTAERSIEDELNRESNSDVFTVIISYVVMFLYISLALGHIQSCSRLLVDSKISLGIAGILIVLSSVACSLGIFSYMGMPLTLIVIEVIPFLVLAVGVDNIFILVQTYQRDERLQEETLDQQLGRILGEVAPTMFLSSFSETSAFFFGALSSMPAVHTFSLFAGMAVLIDFLLQITCFVSLLGLDIKRQEKNHLDILCCVRGADDGQGSHASESYLFRFFKNYFAPLLLKDWLRPIVVAVFVGVLSFSVAVVNKVDIGLDQSLSMPNDSYVIDYFKSLAQYLHSGPPVYFVLEEGYNYSSRKGQNMVCGGMGCDNDSLVQQIFNAAELDTYTRVGFAPSSWIDDYFDWVSPQSSCCRLYNVTHQFCNASVMDPTCVRCRPLTPEGKQRPQGKEFMKFLPMFLSDNPNPKCGKGGHAAYGSAVNIVGDDTYIGATYFMTYHTILKTSADYTDAMKKARLIASNITETMRSKGSDYRVFPYSVFYVFYEQYLTIIDDTIFNLSVSLGSIFLVTLVVLGCELWSAVIMCITIAMILVNMFGVMWLWGISLNAVSLVNLVMSCGISVEFCSHITRAFTMSTKGSRVSRAEEALAHMGSSVFSGITLTKFGGIVVLAFAKSQIFEIFYFRMYLAMVLLGATHGLIFLPVLLSYIGPSVNKAKRHTTYERYRGTERERLLNF
B6: Niemann–Pick type C intracellular cholesterol transporter 1 (Npc1): Fut2ΔISC (protein)
parent chain: B5 parent chain

What was measured:
[1] = JC-1 staining in organoids; details: glycan lost; control: WT organoids
[2] = MitoSOX staining in organoids; details: glycan lost; control: WT organoids
[3] = Western blot, whole-cell lysate; details: glycan changed form; control: WT crypts
[4] = complex I, III, IV, V activity kits; details: glycan lost; control: WT organoids
[5] = Western blot of lysosome fractions after CCCP; details: glycan lost; control: WT organoids
[6] = Western blot of Pink1, pS65-Ub, whole-cell lysate; details: glycan lost; control: WT organoids

Protein	other: mitochondrial membrane potential [1]	other: mitochondrial ROS level [2]	expression_or_secretion [3]	other results
B1	no change	no change	–	–
B2	–	–	no change	–
B3	decreases	increases	–	other: respiratory chain complex activity [4]: decreases
B4	–	–	no change	–
B5	decreases	increases	–	other: mitophagy, delivery of mitochondrial proteins to lysosomes [5]: decreases; other: mitophagy activation by CCCP [6]: no change
B6	–	–	no change	–
